The text below walks through data of patent publication US20240239894A1, “THERAPEUTIC BINDING MOLECULES” (MedImmune Limited, priority 2020, published 2024).

The target in experiment [1] is T1, Human B7-H4-Fc (Human B7H4 ECD, Fc_6His) (human).
T1 sequence (Q7Z7D3 whole entry, looked up): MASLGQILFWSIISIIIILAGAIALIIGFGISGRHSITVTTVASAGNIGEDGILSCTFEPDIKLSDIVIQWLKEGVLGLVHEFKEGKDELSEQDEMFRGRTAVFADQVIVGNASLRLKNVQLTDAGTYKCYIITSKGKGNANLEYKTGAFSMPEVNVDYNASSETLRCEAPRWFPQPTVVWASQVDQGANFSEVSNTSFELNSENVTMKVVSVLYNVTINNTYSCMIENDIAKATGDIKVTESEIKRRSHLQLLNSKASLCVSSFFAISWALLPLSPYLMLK
As to the kind of experiment: ELISA on coated human B7H4/Fc, absorbance 450 nm, [IgG] 0.006 to 100 nM.

Experiment [2] concerns the target human B7-H4 on cells (human) (UniProt Q7Z7D3). As to the kind of experiment: flow cytometry, AF647-labelled antibody at 156 ng/ml, HT29 cells expressing hB7-H4.

B1: 1D11 (Genentech anti-B7-H4 mAb) (antibody, from another filing, V domains shown)
VH: QVQLQQSGAELVRPGTSVKMSCKASGYTFTSYWIGWAKQRPGHGFEWIGDIYPGGGYTNYNEKFKGKATLTADKSSSTAYMQFSSLTSEDSAIYYCARLDGSSYRGAMDSWGQGTSITVSS
VL: DIQMTQSPSSLSASLGGKVTITCKASQGFNKYVAWYQHKPGQCPRLLIHYTSTLQPGIPARFSGSGSGRDYSFSISNLEPEDSATYFCLQYGNLLYAFGGGTKLEIKR
With B1, the EC50 (read off the curve) in experiment [1] was found to be 5 nM. The Geometric Mean : Comp-APC-A in experiment [2] is 1200.
